Source: the supplement of paper PMC12764529
± gives the half width of the 95% confidence interval.

Tests used:
[1] = folding stability dG unfold from trypsin proteolysis; higher = more stable
In short: (§1)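 Designed mini-proteins with no cysteine and under 80 residues were kept only if AlphaFold2 dimer inter-PAE was above 15. In a PA-tagged cDNA display construct, they were digested with trypsin and chymotrypsin and then sequenced. K50 was inferred by Bayesian fitting of counts, and unfolding free energy was derived per protease or combined against a sequence-predicted unfolded-state K50 and a shared folded-state K50.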

[2] = folding stability dG unfold from chymotrypsin proteolysis; higher = more stable
In short: as §1

[3] = folding stability dG unfold (combined trypsin and chymotrypsin); higher = more stable
In short: as §1

Sequence | folding stability dG unfold [1] [kcal/mol] | folding stability dG unfold [2] [kcal/mol] | folding stability dG unfold [3] [kcal/mol]
SAGGWQKVEFMIEIPGGGSLDQAKDEVEEFADYLRKKAGFKDVDVDVQVDPDGWVYVMVEIEVPPNASAGGS [r8_3_TrROS] | 1.06 ± 0.04 | 2.24 ± 0.042 | 1.87 ± 0.062
SAGGWYIRIKEIERNNDGVNIDIQIPDPDDPEFFENIAENLAQKLGMPKENIKIRIEPTPMPPDPEEPSAGG [r13_430_TrROS] | 0.248 ± 0.13 | 0.0789 ± 0.35 | 0.247 ± 0.23
SAGGYDFDPRGEFPFPNGVKVEVWEMTWPDGNPMTMIEIEATIPPPPKPPMSPEDAKENNKDMAKNNSAGGS [r16_8_TrROS] | -0.415 ± 0.12 | 0.403 ± 0.16 | 0.211 ± 0.21
SAGGYIPASARIEVLEVFEDGTVRVRVTYPDGSEAEVVARLVRTADGRVYLEIFDPRTGRLLATLELTSAGG [r13_527_TrMRF] | 4.09 ± 0.09 | 3.81 ± 0.054 | 3.88 ± 0.092
SAGGYKFTIIARFDSVEEAKEWVEEIIRDIFPDNGIEVEVEVETDPENGGVYVKATIEVPPPDPDDFSAGGS [r8_17_TrROS] | 2.98 ± 0.17 | 4.36 ± 0.23 | 4.01 ± 0.3
SAGGYKITIPAMFDTPEDALDQVREIARSLGYRITDIKNVEVHKHEDNGMVMVEATIKIEPLPKGQLSAGGS [r16_155_TrROS] | 1.77 ± 0.042 | 2.07 ± 0.074 | 1.97 ± 0.12
SAGIEEEVRKLFPDRELEVKVKEKRLKAPNGVPVTLYEVTVTFPDGSRYKLTLTKTPNSVTLSVTPLDASAG [r14_28_JUSTAS] | 2.73 ± 0.2 | 3.34 ± 0.035 | 3.18 ± 0.17
SAGIFRFPDGQEITIPYYARTPNGKITPSEIKEQIKEFLAEQPGVKITEIEVEHEDNYVRVTITVRLPKSAG [r5_688_TrROS] | 1.46 ± 0.14 | 0.316 ± 0.42 | 1.01 ± 0.21
SAGISIRFPGMQIEIDEIERDNNKVVIRVEVTMPAKNPNGQPQMMTHTMWIVIKIPPPPPPADPADAKKSAG [r5_70_TrROS] | 2.81 ± 0.12 | 3.96 ± 0.053 | 3.51 ± 0.23
SAGITIIIRGPDAKEAAEDIAKELLKNGFKRPITVHVLDPDGKPWYRIKIQFDPKNPGKIKVKVEPYDSAGG [r19_85_TrROS] | 3.39 ± 0.089 | 3.66 ± 0.042 | 3.65 ± 0.076
SAGITITVPPGKPYYVHITMYMFDPNGKLMGPQTIMFPIRVPPDDTIEIPIPFDSPNIRITDISIMPKSAGG [r19_295_TrROS] | 1.98 ± 0.058 | 2.54 ± 0.094 | 2.4 ± 0.16
SAGIVIPINNPEQAEELAKEFAPEYGYEVEIERVPPGEPLEELPPNDIIVHDPDSGWFYKIKIKRPDEKSAG [r5_173_TrROS] | 0.38 ± 0.1 | 0.134 ± 0.43 | 0.29 ± 0.24
SAGKDGDPPKRVRIKFKIPLPGGKLYEVTQTFYPNGSVHVSIRFPNGWMLSAWIPPDGDIEIKIMPIKKSAG [r5_168_TrROS] | 3.37 ± 0.21 | 4.3 ± 0.14 | 4 ± 0.23
SAGKEIIIPFRDIPPKYIKNQLKKFPPGKEIRIMFPGPEVADYLKEKGFPVRPERIKPITPDDMAKMMNSAG [r5_354_TrROS] | -0.149 ± 0.4 | -0.186 ± 0.26 | -0.258 ± 0.28
SAGKEKEIAEAIEEFLKEKGYDVKVKLIKVNPNNPNLSKVVLEVEVLGYLPDKKPLGKKRFKLVILGGSAGG [r19_418_TrMRF] | 2.64 ± 0.066 | 2.72 ± 0.046 | 2.52 ± 0.17
SAGKEKEVKEVTIKIKIYVTNKNGEKKEITIEVKAKNKEDLLEALKKLGLSVEELKEKFPNIKIVEIEPSAG [r5_430_TrROS_Hall] | 2.3 ± 0.22 | 4.05 ± 0.22 | 4.01 ± 0.55
SAGKELTIEIVIERNGELITLTIKAKSEEELLEALKKLLEELGFEVEDIKIEKKDGEVIVTVTIRLPKKSAG [r5_946_TrROS_Hall] | 2.7 ± 0.13 | 3.83 ± 0.081 | 3.43 ± 0.15
SAGKETVKLVVVNKETNKVVEVTFNKDGEIVSVKVFEVKPAPPPPPVELSEEQLVKTKDGKWRSLEELKSAG [r5_685_TrROS_Hall] | -0.369 ± 0.13 | 1.19 ± 0.075 | 0.829 ± 0.11
SAGKIEIVEVTKNYVKIKIKNKKTNKTIEIKIPVKKKKGKKLSKEELEELAKKLAKELYPDMKIEVEKVSAG [r5_293_TrROS_Hall] | 2.24 ± 0.091 | 3.86 ± 0.086 | 3.31 ± 0.27
SAGKIKIEVVKREDGYVVVKIRFEDTGEELVITVPKEDEEKVKELAEELAEKLKEEGIEVEVEVRELPPSAG [r5_815_TrROS_Hall] | 2.53 ± 0.11 | 3.09 ± 0.21 | 2.86 ± 0.22
SAGKITITVEKNEDGELTVTIRIEKDGKPIEEITFESEEEALEAAKKLAEELKKKYPDLKIEVEIVPRPSAG [r5_383_TrROS_Hall] | 3.47 ± 0.27 | 2.65 ± 0.22 | 3.53 ± 0.64

Sequence | folding stability dG unfold [1] [kcal/mol] | folding stability dG unfold [2] [kcal/mol] | folding stability dG unfold [3] [kcal/mol]
SAGKKIDPEALAKRILKEFGLPEDAEVEVEEIENTYIARFPEATALFTIEDDEVTVFLAPARPEPELAGSAG [r5_190_TrMRF] | 0.984 ± 0.11 | 0.598 ± 0.18 | 0.881 ± 0.18
SAGKKIKLELYFEENGLKVEVEFDEETGVITVKVELKDGTRIEAKFELLPDGTLKLEIKIEKVKPGEKPSAG [r5_766_TrROS_Hall] | 2.94 ± 0.15 | 3.87 ± 0.27 | 3.49 ± 0.46
SAGKKKKFKIVSVEVEVKEVNGKLVIKMKVKDKKTGKTYEITMTLKVVDKKTKKTYTKTLKVTIKLPKSAGG [r19_129_TrROS_Hall] | 3.46 ± 0.15 | 4.44 ± 0.16 | 4.04 ± 0.4
SAGKKKKITIEIVIKPKTLEELENKIKEIAKKLGLKKIEKIEIVKIEKDKNGKIKKVVIKITLTEEALKSAG [r5_575_TrROS_Hall] | 1.51 ± 0.12 | 3.25 ± 0.24 | 2.61 ± 0.31
SAGKKKKVVITIKVEKSEEEVKELVKKLAEEAKKKGKEVVIKIEVDGKTYEFTLEDIKKLPPNAKVTLLSAG [r5_626_TrROS_Hall] | 1.56 ± 0.11 | 1.67 ± 0.096 | 1.58 ± 0.44
SAGKKPKVIEKTITIKVYDKKTKKEYEIKIKVRVVKKDGKVIEEFSEEEAKELAKKLAEELKKNKNIKPSAG [r5_426_TrROS_Hall] | 1.81 ± 0.097 | 2.44 ± 0.04 | 2.22 ± 0.14
SAGKKSIVAPYEELKKIIELLPSGKKYKVIASDPNGKKIEGTIEVKGGKAKIEPGPKNTFKDLLIVITGSAG [r5_85_TrMRF] | 0.248 ± 0.061 | 0.3 ± 0.13 | 0.248 ± 0.12
SAGKKTIMIFIPGNMPLDTLKSALRNLPPNVEIHIMYPGQMQTITYDPDDIEIELPPGFPNFYIMIEVPSAG [r5_373_TrROS] | 2.68 ± 0.13 | 2.646 ± 0.017 | 2.72 ± 0.057
SAGKKVKINIKLPEGAKVTKIEFDKKTKTIKITIYDKNGKKVLEMTFVYKDKNGKYKIVKKITVYLKKPSAG [r5_434_TrROS_Hall] | 2.97 ± 0.27 | 4.19 ± 0.068 | 4.09 ± 0.27
SAGKKVVIIEIEEVTNEDGEKEYKIRVLVKDEETGEVTEREITVKEGESIEDLIKKALEEGADEVIIVPSAG [r5_37_TrROS_Hall] | 3.98 ± 0.13 | 4.15 ± 0.14 | 4.12 ± 0.25
SAGKKYVVVIDIEVKMPGKTKPRPIVIPVPEGETIKEQLSELPGLDNVKIKIQVIPPDQDPDFAGQPISAGG [r19_339_TrROS] | 0.569 ± 0.16 | 1.76 ± 0.17 | 1.2 ± 0.29
SAGKLKPGDPVKIKIEIERDPGNGMVRVTYKIEFKDGMYVTMIIPPNGPIHVEIFNPDDGKEREETIPLSAG [r5_55_TrROS] | 2.15 ± 0.085 | 2.67 ± 0.096 | 2.46 ± 0.26
SAGKMKIISVKIENNTITIEIYKDGKKIKKIEIKKNKKKIIIKIEIEPGEEIKIKIEINGKTYEITIKPSAG [r5_533_TrROS_Hall] | 2.89 ± 0.26 | 4.64 ± 0.23 | 4.11 ± 0.46
SAGKMVKITITGPADKIKELLKKLFPNAEVEVKKVNGKLVFYFKPGEEVIEIEITDKDGNKLTIKIEKVSAG [r5_123_TrROS_Hall] | 2.54 ± 0.066 | 3.74 ± 0.087 | 3.48 ± 0.17
SAGKPEWKLVETIEVTIEVPPGVTVEEIEKKLLEALKEKGIKEVKIEVTYDKENKTITVRVEVLVKKEKSAG [r5_924_TrROS_Hall] | 1.27 ± 0.13 | 1.92 ± 0.11 | 1.66 ± 0.26
SAGKPKKKIKIKLYNVDTGEEIEIEVTVEELKKLLEKLGFEVVKIEYDEETGEVTIYVKVDGYYLEIEESAG [r5_521_TrROS_Hall] | 2.63 ± 0.16 | 3.55 ± 0.13 | 3.41 ± 0.28
SAGKPKKKKRTITIPIEHNPNNGNFTIKIRWPGRPVTVPFPGDDPEEMLDNMLNELENRLGWPIDEVEISAG [r5_251_TrROS] | 0.932 ± 0.069 | -0.116 ± 0.27 | 0.429 ± 0.23
SAGKPKPEETVTLVLEVPKENPIKVEELFEKLPDVKFVEVKVEPLPDDRVLITITVLPEDVEKIKKALGSAG [r5_554_TrMRF] | 3.58 ± 0.28 | 2.13 ± 0.069 | 2.76 ± 0.13
SAGKPKVKVETVTIEVDGKKIKIEVVELENGEKLVRVEVFDENGELVETKTVTLEELKKLLEKAGIEVSAGG [r19_90_TrROS_Hall] | 1.64 ± 0.1 | 2.2 ± 0.16 | 1.84 ± 0.28
SAGKPVKVTLNVVRLPGTGELVVFAEITYPDGSTAYAVARADLATGTVHVKLFDPNGKLLAELTVTLKPSAG [r14_524_TrMRF] | 3.64 ± 0.2 | 4.62 ± 0.11 | 4.4 ± 0.096
SAGKRMPVEEIANELAKEFPPGQTREVPIRNEDGGEWITLTVYHPNGKPVWKITIRPDGEIEVEWVPLSAGG [r19_0_TrROS] | 0.889 ± 0.042 | 2.31 ± 0.024 | 1.94 ± 0.088
